The values below come from patent publication US20260193344A1 (H LUNDBECK A S, published 2026).

Numbering of substitutions follows the chain as printed.

T1: human ACTH 1-39 (human, not fully specified; N-terminal biotin in the ELISA and HTRF binding assays (p-1487, p-1488); 125I on Tyr23 in Example 9 (p-1542); unlabelled in SPR. Letters unchanged.)
T1 peptide: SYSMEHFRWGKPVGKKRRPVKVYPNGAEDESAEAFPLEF

T2: ACTH 1-24 (human)
T2 peptide: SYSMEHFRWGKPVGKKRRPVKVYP

T3: human alpha-MSH (ACTH 1-13) (human, not fully specified; ends and bridges not checked)
T3 peptide: Ac-SYSMEHFRWGKPV-NH2

B1: Ab1 (antibody, V domains shown)
VH: QSVKESGGRLVTPGTPLTLTCTVSGFSLSNYDMIWVRQAPGKGLESIGMIYDDGDTYYASWAKGRFTISKTSTTVDLKIISPTTEDTATYFCVKGVSNHWGPGTLVTVSS
VL: DVVMTQTPASVEAAVGGTVTIKCQASQSISSYLAWYQQKPGQPPKLLIYSASTLASGVPSRFKGRGSGTEFTLTISDLECADAATYYCQSYDGSSGSSYGVGFGGGTEVVVKR
notes: Full-length rabbit/human chimeric antibody, HEK-293
B2: Ab11 (antibody, V domains shown)
VH: QSLEESGGRLVTPGTSLTLTCTASGFSLSAYDILWVRQAPGKGLESIGMMYDDGDTYYATWAKGRFIISRTSTTMDLKIISPTTEDTATYFCVKGVSNIWGQGTLVTVSS
VL: B1 VL with V2I, T7I, S30D, Y32S, R65S, S76G, G96S, S98Y, V101I
B3: Ab3 (antibody, V domains shown)
VH: QSLEESGGRLVTPGTPLTLTCTVSGSSLSNFDMIWVRQAPGKGLESIGIIYDFGSTYYASWAKGRFTISRTSSTTVDLKIISPTIEDTATYFCVKGVSNIWGQGTLVTVSS
VL: B1 VL with Q27E, S28D, Y32N, P40L, R65S, T74A, G96S, V101I
B4: Ab10 (antibody, V domains shown)
VH: B1 VH with K4E, N30S, Y31A, S60T, N98S, H99V, P102Q
VL: B1 VL with K22N, Q27E, S28N, S30Y, S31R, Y32S, R65S, G96S
B5: Ab2 (antibody, V domains shown)
VH: B1 VH with K4E, N30K, M49I, K70Q, H99I, P102Q
VL: B1 VL with S31N, P40T, R65S, D92E, G96S
B6: Ab7 (antibody, V domains shown)
VH: QSVEESGGRLVTPGTPLTLTCTVSGFSLSSYAMSWVRQAPGEGLEWIGIISDSGSTYYASWAKGRFTISKTSTTVDLRITSPTTEDTATYFCAREPEYGYDDYGDWVSDLWGQGTLVTVSS
VL: DIVMTQTPASVEAAVGGTVTIKCQASQSISDYLSWYQQKPGQPPKLLIYRASTLASGVPSRFKGSGSGTQFTLTISDLECADAATYYCQSYYYSSSITYRNAFGGGTEVVVKR
notes: as for B1
B7: Ab6 (antibody, V domains shown)
VH: B6 VH with S29T, S30D, I68F, D102E, Q113P
VL: B6 VL with T18A, S26T, S30G, D31N, Y32N, S34A, Q70E, R100H
B8: Ab5 (antibody, V domains shown)
VH: B6 VH with R78K
VL: B6 VL with E12S, A13E, A14P, D31S
B9: Ab13 (antibody, human IgG1, kappa, N297A, V domains shown)
VH: QQLEESGGGLVKPGGTLTLTCTASGFSFSSGYDICWARQGPGKGLEWIGCIDTGSGNTYYASWAKGRFTMSRTSSTTVTLQVTSLTAADTATYFCAKGISSIWGPGTLVTVSS
VL: DIVMTQTPASVSEPVGGTVTIKCQASQTISSDLAWYQQKPGQPPKLLIYAASKLTSGVSSRFKGGGTGTQFTLTISDLECADAATYYCQTYYDIIDDGCTFGGGTEVVVKR
B10: Ab13.H (antibody, human IgG1, kappa, N297A, V domains shown)
VH: EVQLVESGGGLVQPGGSLRLSCAASGFTVSSGYDICWVRQAPGKGLEWIGCIDTGSGNTYYASSAKGRFTMSRDNSKNTVYLQMNSLRAEDTAVYYCAKGISSIWGQGTLVTVSS
VL: DIQMTQSPSTLSASVGDRVTITCQASQTISSDLAWYQQKPGKAPKLLIYAASKLTSGVPSRFSGSGSGTEFTLTISSLQPDDFATYYCQTYYDIIDDGATFGGGTKVEIKR
B11: Ab12 (antibody, V domains shown)
VH: B1 VH with K4E, F26S, N30D, M49I, S60T, K78R, H99M
VL: B1 VL with A9S, E12S, S30G, Y32S, P43R, S50A, R65S, G96S
B12: Ab9 (antibody, V domains shown)
VH: B6 VH with S29N, S55R, R78K, Q113P
VL: B6 VL with I2V, D31S

In the first test the target is T1, human ACTH 1-39. In words: cell-based or functional assay.
Turning to B1, the “IC50, ACTH-induced cAMP, MC3R cells” value was 101 nM; the “IC50, ACTH-induced cAMP, MC4R cells” value was determined as 56.4 nM; the “IC50, ACTH-induced cAMP, MC5R cells” value was 1100 nM.
On to B2, for which the “IC50, ACTH-induced cAMP, MC3R cells” value is 108 nM; the “IC50, ACTH-induced cAMP, MC4R cells” value amounted to 49.4 nM; the “IC50, ACTH-induced cAMP, MC5R cells” value came out at 4200 nM.
Take B3: the “IC50, ACTH-induced cAMP, MC3R cells” value came out at 58.7 nM; the “IC50, ACTH-induced cAMP, MC4R cells” value worked out at 54.2 nM; the “IC50, ACTH-induced cAMP, MC5R cells” value is 1100 nM.
As for B4, the “IC50, ACTH-induced cAMP, MC3R cells” value is 133 nM; the “IC50, ACTH-induced cAMP, MC4R cells” value worked out at 66.3 nM; the “IC50, ACTH-induced cAMP, MC5R cells” value came to 5400 nM.
The corresponding values for B5 are 79 nM, 54.5 nM and 1100 nM.
On to B6, for which the “IC50, ACTH-induced cAMP, MC3R cells” value was found to be 64.2 nM; the “IC50, ACTH-induced cAMP, MC4R cells” value was 49.7 nM; the “IC50, ACTH-induced cAMP, MC5R cells” value was 1100 nM.
Take B7: the “IC50, ACTH-induced cAMP, MC3R cells” value came to 62.8 nM; the “IC50, ACTH-induced cAMP, MC4R cells” value is 55.2 nM; the “IC50, ACTH-induced cAMP, MC5R cells” value turned out to be 1000 nM.
The corresponding values for B8 are 58.1 nM, 43.4 nM and 1000 nM.

The target in a further test is T2, ACTH 1-24. In words: cell-based or functional assay.
In the case of B3, the “IC50, ACTH 1-24 induced cAMP, MC2R cells” value was found to be 0.8 nM.
Consider B5, for which the “IC50, ACTH 1-24 induced cAMP, MC2R cells” value came out at 1.3 nM.
As for B9, the “IC50, ACTH 1-24 induced cAMP, MC2R cells” value was determined as 1 nM.
Turning to B7, the “IC50, ACTH 1-24 induced cAMP, MC2R cells” value was 0.1 nM.
B10: the “IC50, ACTH 1-24 induced cAMP, MC2R cells” value was 0.3 nM.

In a further test the target is T3, human alpha-MSH (ACTH 1-13). Description: SPR (ProteOn XPR36), antibody immobilized.
Method: (§1) Antibody was immobilized to the surface of general amine coupling (GLC or GLM) Chips (Bio-Rad). […] Surfaces were regenerated between analyte queries using 10 mM glycine at pH 2.0.
With B6, the kon was 130000 M⁻¹ s⁻¹.

The target in another test is T1, human ACTH 1-39. Description: cell-based or functional assay. This is another data set of the same source.
In the case of B1, the “IC50, ACTH-induced cortisol, Y1 cells” value was found to be 2.36 nM.
Same read-out and setting: the figure for B2 is 1.53 nM; for B3 it is 7.72 nM.
Take B11: the “IC50, ACTH-induced cortisol, Y1 cells” value was 2.68 nM.
As to B4, the “IC50, ACTH-induced cortisol, Y1 cells” value was 5.98 nM.
In the case of B6, the “IC50, ACTH-induced cortisol, Y1 cells” value was found to be 2.49 nM.
With B7, the “IC50, ACTH-induced cortisol, Y1 cells” value came out at 1.44 nM.
Still for that read-out and setting: the figure for B8 is 3.49 nM; for B12 it is 3.47 nM.

The next test concerns the target T1, human ACTH 1-39. Description: SPR (ProteOn XPR36), antibody immobilized.
Method: as §1
B1: the kon came to 1e+06 M⁻¹ s⁻¹.

A further test addresses T1, human ACTH 1-39. In words: cell-based or functional assay. The source holds these as a separate data set.
With B1, the “IC50, ACTH-induced cAMP, MC2R cells” value turned out to be 0.14 nM.
Take B2: the “IC50, ACTH-induced cAMP, MC2R cells” value is 0.03 nM.
Still for that read-out and setting: the figure for B3 is 0.29 nM; for B11 it is 0.05 nM.
Regarding B4, the “IC50, ACTH-induced cAMP, MC2R cells” value was determined as 0.16 nM.
For B5, the “IC50, ACTH-induced cAMP, MC2R cells” value was found to be 0.25 nM.
For B6, the “IC50, ACTH-induced cAMP, MC2R cells” value is 0.09 nM.
For B7, the “IC50, ACTH-induced cAMP, MC2R cells” value worked out at 0.03 nM.
Turning to B8, the “IC50, ACTH-induced cAMP, MC2R cells” value turned out to be 0.11 nM.
With B12, the “IC50, ACTH-induced cAMP, MC2R cells” value was found to be 0.12 nM.

A further test concerns the target T1, human ACTH 1-39. In words: cell-based or functional assay. This is another data set of the same source.
On to B1, for which the “IC50, ACTH-induced cAMP reporter, MC1R cells” value (“IC50 … MC1R cells” below) was 2.38 nM.
On the same count and under the same terms, the figure for B2 is 1.49 nM; for B3 it is 4.12 nM.
Take B11: the “IC50 … MC1R cells” value worked out at 1.66 nM.
Regarding B4, the “IC50 … MC1R cells” value came out at 2.14 nM.
Regarding B5, the “IC50 … MC1R cells” value turned out to be 3.62 nM.
Take B6: the “IC50 … MC1R cells” value amounted to 1.29 nM.
On the same count and under the same terms, with B7 the figure was 1.04 nM; with B8, 1.96 nM.

As a reminder, the kon is the rate constant with which the complex forms. Low values mean slow association, high ones fast association.
